Laboratory results as given in paper PMC13480645.

Target: MERS-CoV S2 stem helix peptide (MERS-CoV)

Chain of S2P6 (antibody) (VH): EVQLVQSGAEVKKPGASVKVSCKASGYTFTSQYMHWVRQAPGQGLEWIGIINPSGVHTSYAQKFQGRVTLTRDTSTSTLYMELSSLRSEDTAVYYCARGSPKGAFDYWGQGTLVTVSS
Chain of S2P6 (antibody) (VL): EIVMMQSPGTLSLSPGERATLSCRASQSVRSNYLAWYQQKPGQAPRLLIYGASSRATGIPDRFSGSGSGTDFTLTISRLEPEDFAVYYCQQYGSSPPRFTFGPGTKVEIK

S2P6 (antibody)
IC50 of neutralisation of MERS-CoV pseudovirus (HeLa-hDPP4 cells): 8.37 µg/mL
